Experimental data as given in PMC4861311.

Tests used:
[1] = biological target: CelB tetramer (Pyrococcus β-glucosidase CelB, isolated sample imaged by cryo-EM) (Pyrococcus furiosus) (UniProt Q51723); assay: cryo-EM structure
[2] = biological target: bacteriophage P22 coat protein (Salmonella typhimurium bacteriophage P22) (UniProt P26747); assay: SEC-MALS
Sequence of UniProt P26747 (P26747 whole entry): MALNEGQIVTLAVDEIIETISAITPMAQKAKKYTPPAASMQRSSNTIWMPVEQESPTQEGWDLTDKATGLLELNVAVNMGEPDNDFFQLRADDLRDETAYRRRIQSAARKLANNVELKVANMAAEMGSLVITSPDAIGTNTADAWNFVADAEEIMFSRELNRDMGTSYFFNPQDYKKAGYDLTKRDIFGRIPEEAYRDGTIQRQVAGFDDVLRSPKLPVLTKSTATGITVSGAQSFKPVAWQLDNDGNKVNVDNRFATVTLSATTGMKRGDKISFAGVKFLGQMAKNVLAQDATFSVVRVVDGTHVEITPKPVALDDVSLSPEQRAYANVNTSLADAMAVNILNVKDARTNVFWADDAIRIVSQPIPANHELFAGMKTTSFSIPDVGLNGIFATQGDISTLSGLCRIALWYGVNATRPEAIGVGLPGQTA

Substance	stoichiometry N [1]	#Cargo/capsid [2]
CelB tetramer (Pyrococcus β-glucosidase CelB, isolated sample imaged by cryo-EM) (from UniProt Q51723 2-472) (enzyme)	4	
EGFP fused to N-terminal-truncated P22 scaffold protein		224 cargo/capsid
